Among the data in US20220162304A1 are EC50 (read off the curve) and Kd values, retold here.

Test [1] deals with human CD79B antigen (coating antigen of the ELISA, construct not stated) (human) (UniProt P40259). The experiment in a line: ELISA, plate coated with antigen at 1 ug/mL, serial antibody dilutions, OD450. A general note: In an ELISA, binding on a coated surface is turned into a signal by an enzyme label.
The target of test [2] is fusion protein of human CD79B extracellular domain (ECD) and His tag (human CD79B ECD-His) (human) (UniProt P40259). As to the kind of experiment: SPR (Biacore 8K; by Example 2 human CD79B-His immobilised on CM5 chip, antibody flowed over). (Surface plasmon resonance follows binding to a sensor surface in real time, without labels.)
fusion protein of human CD79B extracellular domain (ECD) and His tag (human CD79B ECD-His) (human), sequence (P40259 29-159 limits assumed): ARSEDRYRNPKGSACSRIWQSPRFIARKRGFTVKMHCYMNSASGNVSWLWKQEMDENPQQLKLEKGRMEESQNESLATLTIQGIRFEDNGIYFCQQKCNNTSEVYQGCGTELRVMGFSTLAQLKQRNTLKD

human CD79B antigen (coating antigen of the ELISA, construct not stated) (human), sequence (P40259 29-159 limits assumed): as above

Take SN8 (antibody): the EC50 (read off the curve) (usually the concentration at which the effect is half-maximal) in test [1] was found to be 0.1 nM. Moreover, in test [2], the equilibrium dissociation constant (Kd) – broadly, a measure of binding affinity in units of concentration – turned out to be 5.98 nM.
